Laboratory results published in article PMC9677429, “The Role of Electrostatic Interactions in IFIT5-RNA Complexes Predicted by the UBDB+EPMM Method”.
Residue numbers refer to the chain shown, from its start. Several values for one entry are separate records, joined by “and”; a condition that tells them apart may be missing. Equal entries are not always repeated.

Experiments:
Conditions in all cases: protein: recombinant; tags: N-terminal His tag (pETG10a); label: 3'-Cy5; single strand, 12 nt
IFIT5 WT [1] = target: T1, IFIT5 WT (UniProt Q13325 1-482); assay: MST; apparent; replicates with and without 1 mM Mg2+ pooled; MST: PBS, 5% glycerol, 0.5 mM TCEP, 0.05% Tween20, +/-1 mM MgCl2 (K150M always with 1 mM MgCl2), 10 nM Cy5-RNA, 22 C, 10 min incubation; pH not stated
T1 sequence: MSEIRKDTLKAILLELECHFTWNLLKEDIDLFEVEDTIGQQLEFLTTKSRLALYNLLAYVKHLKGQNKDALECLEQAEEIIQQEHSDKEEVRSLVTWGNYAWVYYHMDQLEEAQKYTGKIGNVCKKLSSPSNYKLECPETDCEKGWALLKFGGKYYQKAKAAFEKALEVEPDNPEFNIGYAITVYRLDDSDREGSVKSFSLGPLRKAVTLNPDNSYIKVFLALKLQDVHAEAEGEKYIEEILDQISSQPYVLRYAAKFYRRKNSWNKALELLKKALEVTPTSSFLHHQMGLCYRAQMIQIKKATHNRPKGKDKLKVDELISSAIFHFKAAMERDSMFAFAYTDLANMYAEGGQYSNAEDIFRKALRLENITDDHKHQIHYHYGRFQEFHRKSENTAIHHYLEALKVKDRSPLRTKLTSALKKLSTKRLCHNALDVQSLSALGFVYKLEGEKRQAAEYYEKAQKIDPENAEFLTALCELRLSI

IFIT5 Q41E/K150M/R253M [2] = target: T2, IFIT5 Q41E/K150M/R253M (UniProt Q13325 1-482, Q41E;K150M;R253M); assay: as above
T2 sequence: T1 sequence with Q41E, K150M, R253M

IFIT5 K150M = target: T3, IFIT5 K150M (UniProt Q13325 1-482, K150M); assay: MST; apparent; 1 mM Mg2+; MST: PBS, 5% glycerol, 0.5 mM TCEP, 0.05% Tween20, +/-1 mM MgCl2 (K150M always with 1 mM MgCl2), 10 nM Cy5-RNA, 22 C, 10 min incubation; pH not stated
T3 sequence: T1 sequence with K150M

IFIT5 WT [3] = target: T1, IFIT5 WT; assay: MST; apparent, single replicate; 1 mM Mg2+ (assignment by word order); MST: PBS, 5% glycerol, 0.5 mM TCEP, 0.05% Tween20, +/-1 mM MgCl2 (K150M always with 1 mM MgCl2), 10 nM Cy5-RNA, 22 C, 10 min incubation; pH not stated
IFIT5 Q41E/K150M/R253M [4] = target: T2, IFIT5 Q41E/K150M/R253M; assay: as above
IFIT5 WT [5] = target: T1, IFIT5 WT; assay: MST; apparent, single replicate; no Mg2+ (assignment by word order); MST: PBS, 5% glycerol, 0.5 mM TCEP, 0.05% Tween20, +/-1 mM MgCl2 (K150M always with 1 mM MgCl2), 10 nM Cy5-RNA, 22 C, 10 min incubation; pH not stated
IFIT5 Q41E/K150M/R253M [6] = target: T2, IFIT5 Q41E/K150M/R253M; assay: as above

AAAAAGGAAGGU (ssRNA, 5'-triphosphate) [5'-ppp-AAAAAGGAAGGU-Cy5]
Kd (IFIT5 WT [1]): 13.4 nM | Kd (IFIT5 Q41E/K150M/R253M [2]): 1980 nM | Kd (IFIT5 K150M): 204 nM | Kd (IFIT5 WT [3]): 12.7 nM and 13.7 nM and 23 nM | Kd (IFIT5 Q41E/K150M/R253M [4]): 2340 nM | Kd (IFIT5 WT [5]): 8.87 nM | Kd (IFIT5 Q41E/K150M/R253M [6]): 1700 nM
